Results reported in US20250345451A1.

What was measured:
[1] = target: Human TGF-β1 (acrobiosystems, TG1-H421) (human) (UniProt P01137); assay: ELISA on coated human TGF-β1, anti-human Fc-HRP, absorbance at 450 nm (top panel)
[2] = target: Human TGF-β1 (acrobiosystems, TG1-H421) (human) (UniProt P01137)
[3] = target: Human TGF-β3 (PeproTech, 100-36E) (human) (UniProt P10600); assay: ELISA on coated human TGF-β3, anti-human Fc-HRP, absorbance at 450 nm (bottom panel)
[4] = target: human PD-L1 on CHO-hPD-L1 cells (human) (UniProt Q9NZQ7); assay: flow cytometry on CHO-hPD-L1 cells, PE anti-human IgG-Fc; table under the lower panel prints no unit, concentration axis is in nM
Sequence of human PD-L1 on CHO-hPD-L1 cells (human) (Q9NZQ7 19-290): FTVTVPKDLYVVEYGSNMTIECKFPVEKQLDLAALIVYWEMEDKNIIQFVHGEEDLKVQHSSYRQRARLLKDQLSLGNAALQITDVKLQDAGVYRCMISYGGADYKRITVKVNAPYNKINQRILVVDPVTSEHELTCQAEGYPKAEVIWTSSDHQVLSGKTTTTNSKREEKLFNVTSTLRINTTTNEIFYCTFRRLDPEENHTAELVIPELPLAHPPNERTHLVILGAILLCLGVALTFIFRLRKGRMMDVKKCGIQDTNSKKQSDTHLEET

[5] = target: biotinylated human PD-L1 protein (purchased from AcroBiosystems) (human) (UniProt Q9NZQ7); assay: blocking assay by flow cytometry: PD-L1 protein pre-incubated with the sample, binding to human PD-1 on CHO-hPD-1 cells
Sequence of biotinylated human PD-L1 protein (purchased from AcroBiosystems) (human) (Q9NZQ7 19-238 limits assumed): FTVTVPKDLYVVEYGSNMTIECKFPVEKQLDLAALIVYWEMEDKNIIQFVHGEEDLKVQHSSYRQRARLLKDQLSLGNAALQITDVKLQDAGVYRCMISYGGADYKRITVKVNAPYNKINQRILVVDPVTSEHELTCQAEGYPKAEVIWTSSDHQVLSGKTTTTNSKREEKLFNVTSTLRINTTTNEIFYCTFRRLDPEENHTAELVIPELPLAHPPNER

[6] = target: human PD-L1 on CHO-hPD-L1 cells (human) (UniProt Q9NZQ7); assay: flow cytometry on CHO cells overexpressing human PD-L1, median fluorescence intensity PE-A

Sequence of Human TGF-β1 (acrobiosystems, TG1-H421) (human) (P01137 279-390 limits assumed): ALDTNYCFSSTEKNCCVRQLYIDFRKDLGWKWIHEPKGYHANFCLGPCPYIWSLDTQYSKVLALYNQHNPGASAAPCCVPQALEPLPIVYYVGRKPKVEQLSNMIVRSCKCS
Sequence of Human TGF-β3 (PeproTech, 100-36E) (human) (P10600 301-412 limits assumed): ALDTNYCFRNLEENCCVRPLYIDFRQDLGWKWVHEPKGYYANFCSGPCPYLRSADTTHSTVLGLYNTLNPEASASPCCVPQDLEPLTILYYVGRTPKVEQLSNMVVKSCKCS

EC50 (read off the curve) [1] | IC50 (read off the curve) [2] | EC50 (read off the curve) [3] | EC50 [4] | IC50 (read off the curve) [5] | EC50 (read off the curve) [6] | Substance
0.8 nM | 0.4 nM | 0.6 nM |  |  |  | TGF-βR2-Fc (Fc fusion)
 |  |  | 2.27 nM |  |  | … (atezolizumab) (antibody)
1 nM | 0.3 nM | 0.6 nM |  | 4 nM | 3 nM | M7824
